Measured values as given in the supplement of paper PMC6757056.
± gives the standard deviation of the averaged measurements.

B1: library; a variant is named by its letters at N, in order (parent)
chain: GCUGUCACCGAGAAACUGUGAAGUAUAUCUUAAACCUGGGCACUUAAAAGAUAUAUGGAGUUAGUAGUGCAACCUGCUCGGUCUGAUGAGUCCNNNNNNGGACGAAACAGC

How the values were obtained:
[1] = variants of: B1; assay: normalized RNA/DNA level without ligand (relative to sTRSVctl = 100) (log10 (% of sTRSVctl)); HEK293T; ligand: cyclic di-GMP (c-di-GMP-II aptamer); higher = less ribozyme self-cleavage, higher mRNA level; conditions: reporter: mCherry (pCS4076), ligand present: no
Method in brief: (§1)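 Total RNA, extracted with EDTA 72 h after HEK293T cells were transfected with 4 µg per 6-well well of reporter-linked ribozyme switch library plasmids, was reverse-transcribed, amplified, barcoded and sequenced. Ligand, if used, was added 1 h before transfection. RNA level was derived from RNA reads divided by DNA reads and normalized to a spiked-in non-cleaving sequence or to the top sequences. This was multiplied by 100 and log10-transformed, with the top set of 25 sequences and a ≥100 DNA read minimum.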

[2] = variants of: B1; assay: normalized RNA/DNA level with ligand (relative to sTRSVctl = 100) (log10 (% of sTRSVctl)); HEK293T; ligand: cyclic di-GMP (c-di-GMP-II aptamer); ligand concentration (+) RNA-Seq: 1 mM; higher = less ribozyme self-cleavage, higher mRNA level; conditions: reporter: mCherry (pCS4076), ligand present: yes
Method in brief: as §1

Row | Variant | normalized RNA/DNA level without ligand (log10) [1] | normalized RNA/DNA level with ligand (log10) [2]
1 | UCACUG | 1.632 ± 0.0038 | 1.81 ± 0.16
2 | UCACUA | 1.51 ± 0.022 | 1.73 ± 0.099
3 | UCACUC | 1.73 ± 0.068 | 1.89 ± 0.12
4 | ACAUGU | 1.541 ± 0.01 | 1.69 ± 0.091
5 | ACAUGA | 1.3 ± 0.07 | 1.53 ± 0.13
6 | ACAUGC | 1.59 ± 0.049 | 1.77 ± 0.053
7 | ACACUU | 1.47 ± 0.091 | 1.72 ± 0.092
8 | ACACUC | 1.637 ± 0.0033 | 1.77 ± 0.11
9 | ACACUG | 1.48 ± 0.04 | 1.68 ± 0.077
10 | CCACUC | 1.7 ± 0.022 | 1.8 ± 0.1
11 | CCACUG | 1.39 ± 0.042 | 1.63 ± 0.12
12 | UCCACA | 1.74 ± 0.035 | 1.87 ± 0.12
13 | UCCACC | 1.635 ± 0.0036 | 1.8 ± 0.12
14 | ACAUAU | 1.45 ± 0.097 | 1.64 ± 0.14
15 | GCAGGA | 1.4 ± 0.075 | 1.56 ± 0.091
16 | GCAGGG | 1.6 ± 0.05 | 1.74 ± 0.082
17 | GCAGGC | 1.58 ± 0.032 | 1.71 ± 0.025
18 | UCAUCG | 1.79 ± 0.023 | 1.88 ± 0.086
19 | UCAUCC | 1.78 ± 0.027 | 1.9 ± 0.082
20 | UCAUCU | 1.71 ± 0.052 | 1.9 ± 0.1
21 | ACAGUG | 1.51 ± 0.11 | 1.68 ± 0.067
22 | ACAGUC | 1.62 ± 0.045 | 1.78 ± 0.11
23 | ACAGUA | 1.31 ± 0.048 | 1.51 ± 0.15
24 | ACACGU | 1.62 ± 0.043 | 1.83 ± 0.081

Row | Variant | normalized RNA/DNA level without ligand (log10) [1] | normalized RNA/DNA level with ligand (log10) [2]
25 | ACAGAC | 1.49 ± 0.056 | 1.71 ± 0.049
26 | ACAUCC | 1.68 ± 0.047 | 1.83 ± 0.14
27 | ACAUCA | 1.683 ± 0.013 | 1.79 ± 0.063
28 | ACAUCU | 1.6 ± 0.07 | 1.76 ± 0.092
29 | ACAUCG | 1.51 ± 0.1 | 1.71 ± 0.16
30 | CCCACA | 1.57 ± 0.098 | 1.74 ± 0.05
31 | CCCACG | 1.75 ± 0.018 | 1.87 ± 0.044
32 | CCCACC | 1.728 ± 0.007 | 1.84 ± 0.097
33 | GCCACA | 1.654 ± 0.016 | 1.81 ± 0.089
34 | GCCACG | 1.68 ± 0.051 | 1.81 ± 0.12
35 | CCAGGU | 1.69 ± 0.061 | 1.82 ± 0.081
36 | CCAGGA | 1.5 ± 0.088 | 1.71 ± 0.12
37 | CCAGGG | 1.52 ± 0.025 | 1.77 ± 0.12
38 | GCAGCA | 1.82 ± 0.022 | 1.89 ± 0.092
39 | GCAGCG | 1.83 ± 0.035 | 1.92 ± 0.072
40 | GCAGCC | 1.6725 ± 0.00097 | 1.83 ± 0.14
41 | CCAUUC | 1.59 ± 0.043 | 1.77 ± 0.12
42 | CCAUUU | 1.569 ± 0.013 | 1.7 ± 0.12
43 | CCAUUA | 1.41 ± 0.066 | 1.6 ± 0.093
44 | CCAGUG | 1.27 ± 0.14 | 1.48 ± 0.06
45 | UCAUUC | 1.69 ± 0.051 | 1.85 ± 0.084
46 | UCAUUG | 1.617 ± 0.0034 | 1.82 ± 0.082
47 | GCAGAC | 1.42 ± 0.068 | 1.59 ± 0.079
48 | GCAGAU | 1.43 ± 0.093 | 1.6 ± 0.083

Row | Variant | normalized RNA/DNA level without ligand (log10) [1] | normalized RNA/DNA level with ligand (log10) [2]
49 | UCAGAG | 1.53 ± 0.045 | 1.69 ± 0.042
50 | UCAGAC | 1.63 ± 0.017 | 1.76 ± 0.13
51 | UCAGAA | 1.35 ± 0.17 | 1.65 ± 0.14
52 | ACAGGA | 1.3 ± 0.067 | 1.41 ± 0.16
53 | ACAGGC | 1.5 ± 0.065 | 1.68 ± 0.11
54 | ACAGGG | 1.5 ± 0.11 | 1.58 ± 0.15
55 | ACAGGU | 1.42 ± 0.16 | 1.64 ± 0.07
56 | ACAGCU | 1.55 ± 0.062 | 1.73 ± 0.12
57 | ACAGCC | 1.66 ± 0.027 | 1.84 ± 0.1
58 | ACAGCA | 1.66 ± 0.046 | 1.75 ± 0.095
59 | UCAGGC | 1.71 ± 0.027 | 1.84 ± 0.11
60 | UCAGGU | 1.58 ± 0.12 | 1.76 ± 0.12
61 | UCAGGA | 1.45 ± 0.071 | 1.67 ± 0.099
62 | UCAGGG | 1.64 ± 0.023 | 1.81 ± 0.12
63 | UCAUAA | 1.47 ± 0.065 | 1.67 ± 0.087
64 | UCAUAU | 1.54 ± 0.037 | 1.72 ± 0.13
65 | UCAUAC | 1.674 ± 0.011 | 1.81 ± 0.11
66 | UCAUAG | 1.65 ± 0.02 | 1.77 ± 0.17
67 | CCCAAU | 1.55 ± 0.066 | 1.77 ± 0.11
68 | CCCAAC | 1.61 ± 0.037 | 1.82 ± 0.086
69 | CCCAAG | 1.587 ± 0.0023 | 1.74 ± 0.17
70 | GCACUG | 1.54 ± 0.092 | 1.75 ± 0.074
71 | UCCAAC | 1.62 ± 0.037 | 1.78 ± 0.11
72 | UCCAAU | 1.645 ± 0.015 | 1.82 ± 0.12

Row | Variant | normalized RNA/DNA level without ligand (log10) [1] | normalized RNA/DNA level with ligand (log10) [2]
73 | UCCAAG | 1.6 ± 0.033 | 1.78 ± 0.097
74 | GCAUCC | 1.65 ± 0.077 | 1.82 ± 0.052
75 | GCAUCA | 1.61 ± 0.11 | 1.77 ± 0.12
76 | GCAUCG | 1.59 ± 0.045 | 1.76 ± 0.099
77 | GCAUGG | 1.46 ± 0.15 | 1.67 ± 0.064
78 | GCAUGA | 1.38 ± 0.1 | 1.54 ± 0.086
79 | GCAUGC | 1.68 ± 0.026 | 1.81 ± 0.097
80 | CCAGAU | 1.65 ± 0.025 | 1.81 ± 0.12
81 | CCAGAG | 1.42 ± 0.049 | 1.62 ± 0.17
82 | ACAUUC | 1.6 ± 0.084 | 1.81 ± 0.058
83 | ACAUUU | 1.42 ± 0.05 | 1.67 ± 0.11
84 | GCAUUU | 1.55 ± 0.037 | 1.74 ± 0.095
85 | GCAUUC | 1.423 ± 0.011 | 1.7 ± 0.17
86 | GCAUUA | 1.47 ± 0.089 | 1.71 ± 0.12
87 | CCAGCG | 1.76 ± 0.036 | 1.91 ± 0.097
88 | CCAGCU | 1.682 ± 0.011 | 1.86 ± 0.084
89 | CCAGCC | 1.762 ± 0.0075 | 1.86 ± 0.13
90 | GCAGUC | 1.31 ± 0.064 | 1.51 ± 0.1
91 | GCAGUU | 1.45 ± 0.082 | 1.65 ± 0.11
92 | GCAGUG | 1.736 ± 0.0028 | 1.78 ± 0.11
93 | CCAUCU | 1.62 ± 0.074 | 1.76 ± 0.16
94 | CCAUCG | 1.73 ± 0.088 | 1.84 ± 0.1
95 | CCAUCA | 1.66 ± 0.052 | 1.77 ± 0.12
96 | CCAUCC | 1.81 ± 0.043 | 1.92 ± 0.092

Row | Variant | normalized RNA/DNA level without ligand (log10) [1] | normalized RNA/DNA level with ligand (log10) [2]
97 | CCAUGG | 1.65 ± 0.11 | 1.82 ± 0.02
98 | CCAUGU | 1.68 ± 0.054 | 1.8 ± 0.097
99 | CCAUGA | 1.52 ± 0.033 | 1.72 ± 0.087
100 | GCAUAA | 1.41 ± 0.19 | 1.61 ± 0.064
101 | GCAUAU | 1.528 ± 0.014 | 1.72 ± 0.06
102 | UCAGUU | 1.52 ± 0.16 | 1.74 ± 0.13
103 | ACCACA | 1.6 ± 0.019 | 1.76 ± 0.13
104 | ACCACG | 1.633 ± 0.01 | 1.81 ± 0.12
105 | CCAUAC | 1.632 ± 0.0016 | 1.78 ± 0.075
106 | CCAUAG | 1.4 ± 0.17 | 1.66 ± 0.043
107 | CCAUAU | 1.55 ± 0.041 | 1.73 ± 0.071
108 | ACCAAU | 1.48 ± 0.049 | 1.7 ± 0.11
109 | UCAGCA | 1.672 ± 0.004 | 1.82 ± 0.097
110 | UCAGCU | 1.671 ± 0.0017 | 1.82 ± 0.15
111 | UCAGCC | 1.818 ± 0.0024 | 1.88 ± 0.14
112 | GCCAAA | 1.49 ± 0.1 | 1.68 ± 0.08
113 | GCCAAC | 1.51 ± 0.086 | 1.66 ± 0.056
114 | UCAUGC | 1.71 ± 0.081 | 1.89 ± 0.045
115 | UCAUGG | 1.77 ± 0.019 | 1.9 ± 0.08
116 | UCAUGA | 1.57 ± 0.026 | 1.75 ± 0.12
